B1: LINE1-full (parent)
chain: UACGUAGGUGGUUUUCCCCUGAUAGUGCUAAGGGGGCCUGGAAGUUUGGACUGGGCAGAGCUCAACACAGCGUGGCAAAGUGGCUGUGGCUAGACUGCCUCUCUGGAUUCCUCGUCACUCAGCAGGGCAUCUCUGAGAGAAAUGCC

The variants in the series derive from B1. The experiment in a line: self-cleavage, relative activity (ratio to wild type); higher = more cleavage; in vitro, sequencing; the parent is a self-cleaving ribozyme.
On to U109C C113U, for which the self-cleavage is 1.28.
Then U109A C123U, with 1.34; and U102C U104A, with 1.52; and G106U U108C, with 1.32.
Turning to C103U U115C, the self-cleavage came to 1.51.
Then C103U U115A, with 1.72; and U102C U108A, with 1.57; and U102C U108C, with 1.15.
Then U108C C113A, with 1.45.
Consider U102A C131U, for which the self-cleavage stood at 1.26.
To G106A A121G belongs 1.78; to U108C C146U, 0.63; to U104A C118U, 0.84.
As for A107G U108C, the self-cleavage came out at 1.42.
To A107U U119C belongs 2.16.
Then A107G G139A, with 1.19; and A107G G139U, with 2.42; and C101A A124G, with 0.98.
Turning to U102A A140U, the self-cleavage stood at 1.42.
As for U102A A140G, the self-cleavage came to 1.62.
Then C101U G126A, with 1.54; and U102C A141G, with 1.39.
To U102A A142U belongs 1.5.
Then C103G, with 1.25; and C103A, with 1.38; and C103U, with 1.23.
With A107G U115G, the self-cleavage stood at 0.
Then U102A G135A, with 1.47.
Then A107G U130C, with 2.26.
On to U108C C145G, for which the self-cleavage turned out to be 2.49.
U108C C145A: the self-cleavage amounted to 1.47.
To U104A U109C belongs 1.11.
U104A U109A: the self-cleavage is 0.42.
To G106U U134C belongs 0.75.
Then U104A A136G, with 1.39.
To U104A G106A belongs 0.84; to U108C A124C, 1.57; to U104G A140G, 0.73.
G105A G114C: the self-cleavage was determined as 1.42.
Then G105A G114A, with 0.75.
Consider U108C C120A, for which the self-cleavage amounted to 1.45.
Then G105A A136G, with 1.28; and U109A A117G, with 1.42.
On to U109A A117U, for which the self-cleavage stood at 1.51.
Then U104C U109A, with 0.65.
Then U104A A138G, with 1.34.
Then U102C C131U, with 0.87; and U108C A138G, with 1.8; and U108C C131U, with 2.2.
For the variant U104A U130A, the self-cleavage was found to be 0.89.
Regarding C101A A107G, the self-cleavage worked out at 1.57.
Then U104A A117G, with 1.67; and A107U A121G, with 1.62; and U108C G135A, with 1.6.
To G106U U112C belongs 0.82.
Then U102A C120U, with 1.65; and U108C U143G, with 1.23.
In the case of U108C U143C, the self-cleavage turned out to be 1.75.
Then A107U U134G, with 1.9; and A107U U130C, with 2.08; and U104C U119C, with 1.96.
Regarding U104C U119A, the self-cleavage came out at 2.16.
With U104C U119G, the self-cleavage is 0.
Take C101A C113A: the self-cleavage is 1.41.
To A107C U119C belongs 2.19; to U102G U143A, 0.84; to U102C G127A, 1.7.
Regarding U102A U130A, the self-cleavage was determined as 1.28.
To U102A U130C belongs 1.89; to U102C G122A, 1.66.
Then A107U C146U, with 1.21.
To U104A U132A belongs 1.64; to U104A U132C, 1.08.
Turning to U102G A140G, the self-cleavage was determined as 0.39.
Then U104C G125A, with 1.28; and U102C A138U, with 1.49.
Then U102C A117C, with 2.63; and U108C U119C, with 2; and G106A A141G, with 1.16.
To U104C U134C belongs 1.62.
For the variant U102A A141G, the self-cleavage was 1.42.
On to U102C A136U, for which the self-cleavage was determined as 1.8.
To U102C A136C belongs 0.97; to U104C U112A, 1.8.
To U104C U112G belongs 1.41; to U108C G126U, 2.03; to A107U A138G, 1.71.
Then A107U C113U, with 0.69; and U104C C116U, with 1.91.
For the variant G106A C128U, the self-cleavage was 1.7.
To U102A C113A belongs 0.97.
To A107U U112A belongs 2.03.
As for A107G A138G, the self-cleavage came to 1.42.
To U104C A136U belongs 1.91; to U109A G126A, 1.34; to U104A C123U, 1.51.
Then U102C U143A, with 1.36.
Then G106A U134C, with 1.08.
For G105C A140G, the self-cleavage worked out at 1.83.
Take U104C U130G: the self-cleavage came to 1.5.
To U104C G114A belongs 1.59; to G105U A107C, 2.34.
Then G106U A141G, with 0.83.
Then U108C U130G, with 1.02.
For U108C U130C, the self-cleavage is 1.66.
To C101G belongs 1.78.
Take C101A: the self-cleavage turned out to be 1.38.
On to C101U, for which the self-cleavage stood at 1.39.
To G105A A121U belongs 1.46; to G106A U143C, 1.51.
U104G C113U: the self-cleavage came out at 0.83.
Consider U102A C146U, for which the self-cleavage was determined as 0.99.
As to U102C A129G, the self-cleavage worked out at 1.51.
Turning to C101U U115C, the self-cleavage was 1.49.
With C101U A138G, the self-cleavage was found to be 1.69.
To G106C belongs 1.37.
In the case of G106U, the self-cleavage amounted to 1.05.
Then G106A, with 1.48; and U102C A121G, with 1.06; and U108A U115C, with 1.52.
As to A107G A142U, the self-cleavage worked out at 0.74.
To U109C A136U belongs 1.45; to C101U A136G, 1.8; to U108C A121U, 2.15.
Then U108C A121G, with 1.68; and A107U A142G, with 2.36; and U108G U112C, with 2.58.
On to U109C C116U, for which the self-cleavage worked out at 1.5.
Regarding U102G G144U, the self-cleavage stood at 0.97.
U104A A129C: the self-cleavage came out at 1.61.
Consider G105A U109C, for which the self-cleavage was 1.46.
To U108A A142G belongs 1.55.
To U102A belongs 1.21.
Consider U102C, for which the self-cleavage is 1.29.
Then U102G, with 0.71; and C101U A141G, with 2.
Regarding C103U G114C, the self-cleavage amounted to 1.5.
To A107G G114A belongs 1.18.
Then G105A A129C, with 2.69.
Turning to U108C A142G, the self-cleavage is 1.94.
To A107G A136U belongs 1.82.
To U108C U134G belongs 2.43.
To U108A A136G belongs 0.53; to U108A A136U, 1.24.
Take U108A A117G: the self-cleavage came to 1.97.
Consider G105U U119C, for which the self-cleavage is 1.92.
Then U109A U119A, with 1.36.
To U109C G114U belongs 1.33; to U109A A140U, 1.22; to G106A A124U, 1.54.
Turning to U109C A142C, the self-cleavage is 1.45.
Then U109C A142U, with 1.49; and U109C A142G, with 0.77; and A107U G127A, with 0.93.
A107G U119C: the self-cleavage amounted to 1.31.
On to A107G U119G, for which the self-cleavage is 0.84.
For A107G U119A, the self-cleavage was 1.91.
To C103A A142G belongs 1.41; to U102C C133U, 0.47.
Take A107G C118U: the self-cleavage worked out at 1.56.
With U104C A141C, the self-cleavage was determined as 1.73.
To U104C A141G belongs 1.69.
To A107G G126C belongs 2.78; to A107G G126U, 1.48.
Turning to U109C A124G, the self-cleavage came out at 0.78.
To U108A U143C belongs 1.32.
As for U102A U112C, the self-cleavage amounted to 0.96.
